# Reference: the DeepSol protein solubility set
# Experiment: soluble on expression in E. coli; label from the status in PepcDB or PDB records
row,Sequence,soluble on expression in E. coli
1,MDESNVSQELLNSNRTEIARCVLLKDLVVMYGGYEVYANHVDLLMCFHQLMIVLAAPPIKPMQKEPGTLLPPRAVVYKLPAIKGSMKDAFSAHKLLKKSYAKPIVDISSTSGDSDPEWWSDRELTPDLNLKRELLLKKARFSRKTFDKRSSYIAHFKKSHLENYLNSDSDTVSNEKPKTLAQLKNFSKSNLVEYHPSMYRDVGVVIIFFSIYYYDLNSFKVNSEIEKQDKIFQEYKKWIFQSVQERRFVSKECTEPKVLSQLHVHVHQN,not soluble
2,DEQEKLLRLVDNSVELMSLLGTNNINSYINKAGMELLGFDTMEQVLRTPISELHLKEDFEKVSANVITSLQDKGRWSGQMNVRNLKSGEVIPVYNNTVRIDDPATGEILAFGAVMRDMR,not soluble
3,ADIVNLQGVTGGNTYSVPAVTMDLLSGKDVAVEEFPRKLLTFKEKLGEGQFGEVHLCEVEGMEKFKDKDFALDVSANQPVLVAVKMLRADANKNARNDFLKEIKIMSRLKDPNIIHLLAVCITDDPLCMITEYMENGDLNQFLSRHEPPNSSSSDVRTVSYTNLKFMATQIASGMKYLSSLNFVHRDLATRNCLVGKNYTIKIADFGMSRNLYSGDYYRIQGRAVLPIRWMSWESILLGKFTTASDVWAFGVTLWETFTFCQEQPYSQLSDEQVIENTGEFFRDQGRQTYLPQPAICPDSVYKLMLSCWRRDTKNRPSFQEIHLLLLQQGDE,not soluble
4,MAVVKVIRKLKAKRVVIKVGTSTLVYPDGSINLRAIDQLAFVISAMRHRGREVVLVSSGAIGVGLNYMGLKQRPKAIPEQQAIAAIGQTELISIYKERFAIYEQKIGQLLLTRDIFVYPKSHHNVLNTFEALLKQNVVPIVNENDTVAVDELDHETKFGDNDQLSAIVATNIGADLLIMLSDIDGFYDGNPNADARAQLLGHIEKVDQHTYKLAGGSGSRFGTGGMVTKLKAAERMIDANGQMILANGADPTIIFQILAGEPVGTLFGLEHHHHHH,not soluble
5,MKMYEVKEFSSGKRKLEDYKSIIGEEEVSKIQEKAEKLKGRSFVHVNSTSFGGGVAEILHSLVPLLRSIGIEARWFVIEGPTEFFNVTKTFHNALQGNESLKLTEEMKELYLNVNRENSKFIDLSSFDYVLVHDPQPAALIEFYEKKSPWLWRCHIDLSSPNREFWEFLRRFVEKYDRYIFHLPEYVQPELDRNKAVIMPPSIDPLSEKNVELKQTEILRILERFDVDPEKPIITQVSRFDPWKGIFDVIEIYRKVKEKIPGVQLLLVGVMAHDDPEGWIYFEKTLRKIGEDYDVKVLTNLIGVHAREVNAFQRASDVILQMSIREGFGLTVTEAMWKGKPVIGRAVGGIKFQIVDGETGFLVRDANEAVEKVLYLLKHPEVSKEMGAKAKERVRKNFIITKHMERYLDILNSLGGLEHHHHHH,soluble
6,MATAADSVYSIESPKAAKSLMLDVVHAGKRLVAVGDRGHILYSDDQGQTWVQAKVPTRQLLTAVYFVDDKRGWAVGHDAQVLASSDGGATWTRQFQDLKREAPLLDVWFKDTQTGYAVGAYGALLETSDGGQHWEDVSDRLDNEDQFHLNAIAQVKDSGLFIVGEQGSMFRSADDGQTWERLEGPYEGSLFGVIGTGQPATLLVYGLRGNLYRSTDFGSTWEQVELEHHHHHH,soluble
7,MTVPPTATHQPWPGVIAAYRDRLPVGDDWTPVTLLEGGTPLIAATNLSKQTGCTIHLKVEGLNPTGSFKDRGMTMAVTDALAHGQRAVLCASTGNTSASAAAYAARAGITCAVLIPQGKIAMGKLAQAVMHGAKIIQIDGNFDDCLELARKMAADFPTISLVNSVNPVRIEGQKTAAFEIVDVLGTAPDVHALPVGNAGNITAYWKGYTEYHQLGLIDKLPRMLGTQAAGAAPLVLGEPVSHPETIATAIRIGSPASWTSAVEAQQQSKGRFLAASDEEILAAYHLVARVEGVFVEPASAASIAGLLKAIDDGWVARGSTVVCTVTGNGLKDPDTALKDMPSVSPVPVDPVAVVEKLGLA,soluble
8,MAPSKSKEKKEKAKTSRRKSGSQTKKDTTSTVSEGKSPTEVADQLLKAKSRPQMYDLLKGHAAFNVPEFVKNLPVNVRLPIPIRDNRRVLCGSDEEFFPGQYVRMEGAEYIIVQAPTKKSSKLIWRVILKDHIRILVCLCHDEQMSGSDDGKCYTYFPTELEQKMEAELMKGTLSIVCKAREGLSMGATKYELELTDSEVVIDKNSDDPNASNYKSHRLIVFHMNTWSGQKPTSGNALEQAQNVALFFREVKKFEMDILRKSMENFVPPVMLQSFDGINRASTGWVALMLLRDVEKRECFDVPSLIKAIMKFRNGSISTYYQFCFCMAVCLNIGKHTNWCANDCSTALTDLMEKFGNRKLNELGNLAV,not soluble
9,MKKIILIGSGGSGKSTLARQLGNKLNIKVHHLDALFWKPNWEGVPREEQITVQNNLIKDEKWIIDGNYGGTMGIRLNAADTIIFLDIHRTICVYRAFKRIVKYRNKTRPDMGAGCEERFDLQFFKWIWEYPNAKRPTILKELEQLPEEKKVIVLKSPNEVRKFLEHI,soluble
10,MKCIESLGKTVDEAVKKALSELKVTEDKVEIKVIDEGSKGLLNIIGKREAKVKVTLKTDYIDEVRTFLRKVFEDMNLVIEIKIKEIGNDLFVNLFGKNIGLLIGYRGETLDSLQYLVNLVANKNHADGKYKRVILDTENYRAKREETLKRLALKISKRVKEEKSPFKLEPMNPYERRVIHSALQNDKYVRTYSEGEEPHRRVVVELKKS,not soluble
11,MKLSLVFLLFVAFAKSADTAPVDFNKIFVTFVEELMDAINQLILEQMGAIRPSTTPLQSIPPITATDAPTTADTTAEPTKAHETTVAQEATSEGAETHETTVGQDTTVRSGESQETTVSQGTTVSQENTVSQETTVSQDTTVSQETTVSQDTTVSQDTTVSQESTVSQETTVSQDTTVSQETSVSHETNVSPDTTVSQESTVSQDTTVSQETTLSQETTVSQETTVSQDTTVSQETTASQDTTVSQDTTVSQDTTVVPQETTVEATKASEATEENGTTAVTPGESDPCDTTEAPTGGSTVGESEPCDTTEASEPTGHTDQAETVTDPASQATASATIIGGVDQTGSTNLEATTEQICKHPTKDSEEEKTDENKDEKTTRAGTNVHRPEREDILK,not soluble
12,SMLGPEGGEGFVVKLRGLPWSCSVEDVQNFLSDCTIHDGAAGVHFIYTREGRQSGEAFVELGSEDDVKMALKKDRESMGHRYIEVFKSHRTEMDWVLKHSGPNSADSANDGFVRLRGLPFGCTKEEIVQFFSGLEIVPNGITLPVDPEGKITGEAFVQFASQELAEKALGKHKERIGHRYIEVFKSSQEEVRSYSDPPLKFMSVQRPGPYDRPGTARRYIGIVKQAGLERMRPGAYSTGYGGYEEYSGLSDGYGFTTDLFGRDLSYCLSGMYDHRYGDSEFTVQSTTGHCVHMRGLPYKATENDIYNFFSPLNPVRVHIEIGPDGRVTGEADVEFATHEEAVAAMSKDRANMQHRYIELFLNSTTGASNGAYSSQVMQGMGVSAAQATYSGLESQSVSGCYGAGYSGQNSMGGYD,soluble
13,MLDAFAKVVAQADARGEFLTNAQFDALSNLVKEGNKRLDAVNRITSNASTIVANAARALFAEQPQLIQPGGNAYTNRRMAACLRDMEIILRYVTYAILAGDSSVLDDRCLNGLRETYQALGTPGSSVAVAIQKMKDAAIAIANDPNGITPGDCSALMSEIAGYFDRAAAAVA,soluble
14,MIMSKIKLTKNDLKKQKDELKMFKRYLPTLQLKKQQLYMEIVKIENSYKIKNLEQQKLKENISNWISLFSEKFPFESWIQVKTVVKKSLNIAGVAIPIFDSIEYEDIRHDLLFTPYWVDKGIEILKVVIQIDVELKILKKQIDLLLREFRITSQRVNLFEKVMIPTAKANIKKINIYLGDQQTAAVVRGKIAKSSLIKKNRNSLLEHHHHHH,not soluble
